Results on three molecules are retold here after PMC9859756, “OASL phase condensation induces amyloid-like fibrillation of RIPK3 to promote virus-induced necroptosis” (Nature Cell Biology, 2023).

Experiment [1] concerns the target T1, mCherry C-terminal fused full-length human RIPK3 (human, UniProt Q9Y572 1-518).
T1 construct: also called RIPK3–mCherry; mCherry-tagged full-length RIPK3; source: E. coli BL21 DE3 (pLys), purified (glutathione sepharose 4B, GST removed with PreScission protease); not shown: mCherry, C-terminal, kept
Nature of the experiment: in vitro recruitment into phase-separated droplets (fluorescence microscopy). The conditions noted are these: both partners purified.

The target of experiment [2] is T2, eGFP C-terminal fused full-length human OASL (human, UniProt Q15646 1-514).
T2 construct: also called OASL–GFP; GFP-tagged full-length OASL; source: E. coli BL21 DE3 (pLys), purified (glutathione sepharose 4B, GST removed with PreScission protease); not shown: eGFP, C-terminal, kept
T2 sequence (looked up): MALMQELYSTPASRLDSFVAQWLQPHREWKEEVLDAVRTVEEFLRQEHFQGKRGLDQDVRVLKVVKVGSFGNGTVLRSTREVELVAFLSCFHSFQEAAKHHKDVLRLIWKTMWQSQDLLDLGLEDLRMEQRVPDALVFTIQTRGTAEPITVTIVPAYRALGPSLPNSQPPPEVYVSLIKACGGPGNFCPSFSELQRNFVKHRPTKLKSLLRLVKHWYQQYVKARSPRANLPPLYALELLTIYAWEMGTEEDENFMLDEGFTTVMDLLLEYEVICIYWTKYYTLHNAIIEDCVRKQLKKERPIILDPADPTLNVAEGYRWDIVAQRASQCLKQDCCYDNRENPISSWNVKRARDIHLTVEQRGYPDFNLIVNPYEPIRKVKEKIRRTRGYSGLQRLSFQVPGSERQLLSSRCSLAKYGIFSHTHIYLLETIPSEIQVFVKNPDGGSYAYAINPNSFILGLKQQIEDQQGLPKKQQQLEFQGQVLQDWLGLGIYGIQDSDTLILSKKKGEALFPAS
The experiment is described as above. Conditions: both partners purified.

B1: purified untagged full-length OASL (natural protein, human, UniProt Q15646 1-514, looked up)
chain: T2 sequence (looked up)
notes: also called purified human OASL protein; source: purified
As for B1, the binding result in experiment [1] is given as “binds”.

B2: mCherry C-terminal fused C-terminal unstructured region of human RIPK3 (RIPK3 295–518) (domain or fragment, UniProt Q9Y572 295-518, looked up)
chain: NAAVSTVKDFLSQLRSSNRRFSIPESGQGGTEMDGFRRTIENQHSRNDVMVSEWLNKLNLEEPPSSVPKKCPSLTKRSRAQEEQVPQAWTAGTSSDSMAQPPQTPETSTFRNQMPSPTSTGTPSPGPRGNQGAERQGMNWSCRTPEPNPVTGRPLVNIYNCSGVQVGDNNYLTMQQTTALPTWGLAPSGKGRGLQHPPPVGSQEGPKDPEAWSRPQGWYNHSGK
notes: also called RIPK3_(295–518)–mCherry; C-terminal RIPK3_(295–518); source: E. coli BL21 DE3 (pLys), purified (glutathione sepharose 4B, GST removed with PreScission protease); not shown: mCherry, C-terminal, kept
Consider B2, for which, in experiment [2], the binding result was “binds”.

B3: BFP C-terminal fused full-length human ZBP1 (natural protein, UniProt Q9H171 1-429, looked up)
chain: MAQAPADPGREGHLEQRILQVLTEAGSPVKLAQLVKECQAPKRELNQVLYRMKKELKVSLTSPATWCLGGTDPEGEGPAELALSSPAERPQQHAATIPETPGPQFSQQREEDIYRFLKDNGPQRALVIAQALGMRTAKDVNRDLYRMKSRHLLDMDEQSKAWTIYRPEDSGRRAKSASIIYQHNPINMICQNGPNSWISIANSEAIQIGHGNIITRQTVSREDGSAGPRHLPSMAPGDSSTWGTLVDPWGPQDIHMEQSILRRVQLGHSNEMRLHGVPSEGPAHIPPGSPPVSATAAGPEASFEARIPSPGTHPEGEAAQRIHMKSCFLEDATIGNSNKMSISPGVAGPGGVAGSGEGEPGEDAGRRPADTQSRSHFPRDIGQPITPSHSKLTPKLETMTLGNRSHKAAEGSHYVDEASHEGSWWGGGI
notes: also called ZBP1–BFP; not shown: BFP, C-terminal, kept
As for B3, the binding result in experiment [2] is on record as “binds”.
